The nature of this assay: Activity of UGT76G1_Sc for the conversion of Rebaudioside D to Rebaudioside M. Format: biochemical. As to conditions: based on initial concentration of Rebaudioside D; 21 h. The method, then: UGT76G1_Sc was prepared according to EXAMPLE 34. Activity tests were performed at 2 mL scale with 200 μL of lysate for the transformation of Rebaudioside D using 0.5 mM of substrate, 2.5 mM of UDP-Glucose and 3 mM MgCl2 in 50 mM Sodium Phosphate buffer at pH 7.2. Samples were taken and analyzed by HPLC according to the method of EXAMPLE 20.

B1: UGT76G1_Sc (protein, UniProt Q6VAB4 1-458, looked up)
UDP-glycosyltransferase 76G1: MENKTETTVRRRRRIILFPVPFQGHINPILQLANVLYSKGFSITIFHTNFNKPKTSNYPHFTFRFILDNDPQDERISNLPTHGPLAGMRIPIINEHGADELRRELELLMLASEEDEEVSCLITDALWYFAQSVADSLNLRRLVLMTSSLFNFHAHVSLPQFDELGYLDPDDKTRLEEQASGFPMLKVKDIKSAYSNWQILKEILGKMIKQTKASSGVIWNSFKELEESELETVIREIPAPSFLIPLPKHLTASSSSLLDHDRTVFQWLDQQPPSSVLYVSFGSTSEVDEKDFLEIARGLVDSKQSFLWVVRPGFVKGSTWVEPLPDGFLGERGRIVKWVPQQEVLAHGAIGAFWTHSGWNSTLESVCEGVPMIFSDFGLDQPLNARYMSDVLKVGVYLENGWERGEIANAIRRVMVDEEGEYIRQNARVLKQKADVSLMKGGSSYESLESLVSYISSL
modifications: expressed in Saccharomyces cerevisiae
As to B1, the “Rebaudioside M selectivity (Retention Time ~6.7 min)” value amounted to 100%.
